In patent US20170158755A1 (PROTHENA BIOSCIENCES, published 2017):

T1: LGde3, human LAMA4 G domain with LG3 deleted, displayed on 293 cells (human, UniProt Q16363 830-1821, limits assumed)
T1 construct: pDisplay construct on 293 cells; vector tags and anchor not written here; also called LGde3 (LG12); LGde3 (LG23)
T1 sequence: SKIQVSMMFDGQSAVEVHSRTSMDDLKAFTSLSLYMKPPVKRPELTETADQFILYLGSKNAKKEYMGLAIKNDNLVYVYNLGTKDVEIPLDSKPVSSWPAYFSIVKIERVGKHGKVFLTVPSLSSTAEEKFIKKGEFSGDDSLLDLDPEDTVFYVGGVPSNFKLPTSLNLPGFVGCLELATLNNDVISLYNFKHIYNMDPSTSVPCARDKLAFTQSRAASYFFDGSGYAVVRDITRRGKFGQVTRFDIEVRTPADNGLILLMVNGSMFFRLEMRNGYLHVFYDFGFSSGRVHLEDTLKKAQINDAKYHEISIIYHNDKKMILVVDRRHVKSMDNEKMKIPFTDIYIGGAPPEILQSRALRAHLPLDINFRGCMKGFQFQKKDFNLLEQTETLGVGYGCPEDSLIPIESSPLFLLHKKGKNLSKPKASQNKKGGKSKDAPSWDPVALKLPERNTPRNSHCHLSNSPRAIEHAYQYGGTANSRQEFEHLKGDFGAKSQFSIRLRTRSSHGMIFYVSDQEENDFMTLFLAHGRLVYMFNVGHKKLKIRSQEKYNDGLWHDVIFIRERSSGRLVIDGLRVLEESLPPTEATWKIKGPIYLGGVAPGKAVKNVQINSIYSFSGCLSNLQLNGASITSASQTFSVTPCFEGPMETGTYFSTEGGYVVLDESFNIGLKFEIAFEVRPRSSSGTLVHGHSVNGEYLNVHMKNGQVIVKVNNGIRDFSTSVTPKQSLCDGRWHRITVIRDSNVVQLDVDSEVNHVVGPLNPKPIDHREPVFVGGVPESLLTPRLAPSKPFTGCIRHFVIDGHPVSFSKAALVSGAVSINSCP

T2: LGde2, human LAMA4 G domain with LG2 deleted, displayed on 293 cells (human, UniProt Q16363 830-1821, limits assumed)
T2 construct: pDisplay construct on 293 cells; vector tags and anchor not written here; also called LGde2 (LG13)
T2 sequence: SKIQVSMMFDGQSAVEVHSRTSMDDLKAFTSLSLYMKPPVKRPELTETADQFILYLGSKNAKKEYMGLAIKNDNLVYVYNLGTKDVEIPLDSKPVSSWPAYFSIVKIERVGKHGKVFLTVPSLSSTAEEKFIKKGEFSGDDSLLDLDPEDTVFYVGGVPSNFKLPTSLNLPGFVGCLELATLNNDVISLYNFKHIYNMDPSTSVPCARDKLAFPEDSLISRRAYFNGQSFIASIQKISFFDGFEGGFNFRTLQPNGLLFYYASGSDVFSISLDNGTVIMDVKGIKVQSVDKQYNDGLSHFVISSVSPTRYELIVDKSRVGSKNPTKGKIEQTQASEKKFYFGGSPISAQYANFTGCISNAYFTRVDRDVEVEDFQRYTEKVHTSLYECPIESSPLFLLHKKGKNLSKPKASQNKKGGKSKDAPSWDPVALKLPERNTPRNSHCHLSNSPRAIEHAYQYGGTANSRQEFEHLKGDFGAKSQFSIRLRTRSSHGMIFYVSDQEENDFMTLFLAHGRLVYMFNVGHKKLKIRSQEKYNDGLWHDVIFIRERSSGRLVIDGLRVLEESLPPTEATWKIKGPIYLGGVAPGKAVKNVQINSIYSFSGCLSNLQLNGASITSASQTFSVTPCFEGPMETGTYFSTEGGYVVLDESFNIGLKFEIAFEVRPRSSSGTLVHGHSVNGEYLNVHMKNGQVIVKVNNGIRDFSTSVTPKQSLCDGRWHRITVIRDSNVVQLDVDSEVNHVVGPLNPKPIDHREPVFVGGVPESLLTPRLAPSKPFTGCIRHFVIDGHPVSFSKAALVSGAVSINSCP

B1: mouse monoclonal antibody 1C1 (antibody, V domains shown)
VH: QVQLQQSGAELARPGASVKLSCKASGYTFTNYGISWVKQRTGQGLEWIGAIYPRSGNTYYNEKFKGKATLTADKSSSTAYMELRSLTSEDSAVYFCARERDYGSSYALDYWGQGTSVTVSS
VL: DIVMTQSQKFMSTSVGDRVSVTCKASHNVGTNVAWYQQKPGQSPKPLIYSASYRYSGVPDRFTGSGSGTDFTLTISNVQSEDLADYFCQQFNNYPYTFGGGTKLEIKR
notes: version 1 is written here
B2: mouse monoclonal antibody 19C12 (antibody, V domains shown)
VH: QVQLQQSGAELVKPGASVKISCKASGYAFSTYWMNWVKQRPGEGLEWIGQIYPGDGDTNYNGKFKGKATLTADKSSSTAYMQLSSLTSEDSAVYFCARSDGYYDYWGQGTTLTVSS
VL: NIVLTQSPASLAVSLGQRATISCRASESVDSYGTSFMHWYQQKPGQPPKLLICLASSLESGVPARFSGSGSRTDFTLTIDPVEADDAATYYCQQNNEDPPTFGAGTKLELKR
notes: Mouse hybridoma antibody; Mouse IgG2b was used as its isotype control; also called m19C12

Columns and labels:
[1] = target: T1, LGde3, human LAMA4 G domain with LG3 …; assay: flow cytometry on 293 cells displaying LAMA4 G-domain variants; % binding
Text: (§1) LGde1 has a full-length G domain (i.e., LG1-5) with LG1 deleted, LGde2 has a full-length G domain with LG2 deleted, and LGde3 has a full-length G domain with LG3 deleted. Recombinant MCAM-Fc protein was able to specifically bind 293 cells expressing LAMA4 variants LG1-5, LG1-3, and LGde 1 (LG23), but not 293 cells expressing LAMA 4 variants LG4-5, LGde2 (LG13), or LGde3 (LG12).

[2] = target: T2, LGde2, human LAMA4 G domain with LG2 …; assay: as above
Text: as §1

| Binder | binding result [1] | binding result [2] |
| --- | --- | --- |
| B1 | no binding | no binding |
| B2 | no binding | no binding |
